# Legend:
# HLA-A*11:01 [1] = test: IEDB peptide-MHC binding, purified MHC/competitive/fluorescence; ≥ and ≤ were set here for values at or beyond the usual limits of such assays
# HLA-A*03:01 [2] = test: as above
# HLA-A*02:03 [3] = test: IEDB peptide-MHC binding, purified MHC/competitive/fluorescence; filed as Kd, often an IC50 or EC50 that approximates it; ≥ and ≤ were set here for values at or beyond the usual limits of such assays; details: source organism: Cryptosporidium parvum Iowa II
# HLA-A*26:01 = test: as above
# HLA-A*02:11 [4] = test: as above; details: source organism: Cryptosporidium parvum Iowa II
# HLA-A*02:01 [5] = test: as above
# HLA-B*57:01 [6] = test: as above
# HLA-B*18:01 = test: as above; details: source organism: Cryptosporidium parvum Iowa II
# HLA-B*46:01 [7] = test: as above
# HLA-A*03:01 [8] = test: as above; details: source organism: Cryptosporidium parvum Iowa II
# HLA-B*51:01 = test: as above
# HLA-B*15:01 [9] = test: as above
# HLA-C*12:03 = test: IEDB peptide-MHC binding, purified MHC/direct/fluorescence; filed as Kd, often an IC50 or EC50 that approximates it; ≥ and ≤ were set here for values at or beyond the usual limits of such assays
# HLA-B*44:02 = test: as above; details: source organism: Mammarenavirus lassaense
# HLA-B*48:01 = test: as above; details: source organism: Mammarenavirus lassaense
# HLA-A*31:01 = test: as above; details: source organism: Mammarenavirus lassaense
# HLA-B*39:01 [10] = test: as above; details: source organism: Mammarenavirus lassaense
# HLA-B*27:05 = test: as above; details: source organism: Mammarenavirus lassaense
# HLA-B*58:01 = test: as above
# HLA-A*11:01 [11] = test: as above; details: source organism: Mammarenavirus lassaense
# HLA-B*07:02 [12] = test: as above; details: source organism: Mammarenavirus lassaense
# HLA-A*01:01 = test: as above
# HLA-A*02:01 [13] = test: as above; details: source organism: Mammarenavirus lassaense
# HLA-B*57:01 [14] = test: as above
# HLA-B*46:01 [15] = test: as above; details: source organism: Mammarenavirus lassaense
# HLA-A*03:01 [16] = test: as above
# HLA-B*15:01 [17] = test: as above; details: source organism: Mammarenavirus lassaense
# HLA-B*07:02 [18] = test: IEDB peptide-MHC binding, purified MHC/competitive/fluorescence; ≥ and ≤ were set here for values at or beyond the usual limits of such assays
# HLA-A*02:01 [19] = test: as above; details: source organism: Zaire ebolavirus
# HLA-A*24:02 = test: as above; details: source organism: Zaire ebolavirus
# HLA-B*15:17 [20] = test: IEDB peptide-MHC binding, purified MHC/direct/fluorescence; filed as Kd, often an IC50 or EC50 that approximates it; ≥ and ≤ were set here for values at or beyond the usual limits of such assays
# HLA-B*45:06 = test: IEDB peptide-MHC binding, purified MHC/competitive/fluorescence; filed as Kd, often an IC50 or EC50 that approximates it; ≥ and ≤ were set here for values at or beyond the usual limits of such assays; details: source organism: Yellow fever virus
# HLA-B*83:01 = test: as above; details: source organism: Yellow fever virus
# HLA-B*15:42 = test: as above; details: source organism: Yellow fever virus
# HLA-B*39:01 [21] = test: as above; details: source organism: Tetraodon nigroviridis
# HLA-B*27:03 = test: as above
# HLA-B*15:01 [22] = test: IEDB peptide-MHC binding, purified MHC/competitive/fluorescence; ≥ and ≤ were set here for values at or beyond the usual limits of such assays; details: source organism: Zaire ebolavirus
# HLA-A*02:03 [23] = test: IEDB peptide-MHC binding, purified MHC/direct/fluorescence; filed as Kd, often an IC50 or EC50 that approximates it; ≥ and ≤ were set here for values at or beyond the usual limits of such assays; details: source organism: Convict Creek 107 virus
# HLA-A*02:12 = test: as above; details: source organism: Convict Creek 107 virus
# HLA-B*40:01 = test: as above; details: source organism: Orthohantavirus negraense
# HLA-A*02:16 = test: as above; details: source organism: Convict Creek 107 virus
# HLA-A*24:03 = test: as above; details: source organism: Convict Creek 107 virus
# HLA-A*02:11 [24] = test: as above; details: source organism: Convict Creek 107 virus
# HLA-A*29:02 = test: as above; details: source organism: Convict Creek 107 virus
# HLA-A*02:19 = test: as above; details: source organism: Convict Creek 107 virus
# HLA-B*15:17 [25] = test: IEDB peptide-MHC binding, purified MHC/competitive/fluorescence; filed as Kd, often an IC50 or EC50 that approximates it; ≥ and ≤ were set here for values at or beyond the usual limits of such assays; details: source organism: Orthohantavirus sinnombreense
# [26] = source organism: Vaccinia virus WR
# [27] = source organism: Cryptosporidium parvum Iowa II
# [28] = source organism: Zaire ebolavirus
# [29] = source organism: Mammarenavirus lassaense
# [30] = source organism: Cryptosporidium parvum
# [31] = source organism: Tetraodon nigroviridis
# [32] = source organism: Mycobacterium tuberculosis
# [33] = source organism: Orthohantavirus sinnombreense
# [34] = source organism: Vaccinia virus Copenhagen
sequence,measurement,setting,value
AVIRANNNR,IC50,HLA-A*11:01 [1]; [26],2.16 µM
same,IC50,HLA-A*03:01 [2]; [26],5.9 µM
ERTDLFFPV,Kd,HLA-A*02:03 [3],≥ 20 µM
same,Kd,HLA-A*26:01; [27],≥ 20 µM
same,Kd,HLA-A*02:11 [4],2.82 µM
same,Kd,HLA-A*02:01 [5]; [27],≥ 20 µM
same,Kd,HLA-B*57:01 [6]; [27],≥ 20 µM
same,Kd,HLA-B*18:01,≥ 20 µM
same,Kd,HLA-B*46:01 [7]; [27],≥ 20 µM
same,Kd,HLA-A*03:01 [8],≥ 20 µM
same,Kd,HLA-B*51:01; [27],≥ 20 µM
same,Kd,HLA-B*15:01 [9]; [27],≥ 20 µM
FLSDYGPQL,Kd,HLA-C*12:03; source organism: Mycobacterium tuberculosis variant bovis BCG str. Pasteur 1173P2,0.233 µM
GHGFRFEVK,IC50,HLA-A*11:01 [1]; [28],3.17 µM
same,IC50,HLA-A*03:01 [2]; [28],6.42 µM
HHAYQGDYK,IC50,HLA-A*11:01 [1]; [28],≥ 70.5 µM
same,IC50,HLA-A*03:01 [2]; [28],46 µM
IEEVMNIVL,Kd,HLA-B*44:02,≥ 20 µM
same,Kd,HLA-B*48:01,≥ 20 µM
same,Kd,HLA-A*31:01,≥ 20 µM
same,Kd,HLA-B*39:01 [10],0.946 µM
same,Kd,HLA-B*27:05,≥ 20 µM
same,Kd,HLA-B*58:01; [29],≥ 20 µM
same,Kd,HLA-A*11:01 [11],≥ 20 µM
same,Kd,HLA-B*07:02 [12],≥ 20 µM
same,Kd,HLA-A*01:01; [29],≥ 20 µM
same,Kd,HLA-A*02:01 [13],≥ 20 µM
same,Kd,HLA-B*57:01 [14]; [29],≥ 20 µM
same,Kd,HLA-B*46:01 [15],≥ 20 µM
same,Kd,HLA-A*03:01 [16]; [29],≥ 20 µM
same,Kd,HLA-B*15:01 [17],≥ 20 µM
IKRTLAAMP,IC50,HLA-B*07:02 [18]; [28],≥ 151 µM
IVKTVLDHI,IC50,HLA-B*07:02 [18]; [28],≥ 170 µM
same,IC50,HLA-A*02:01 [19],≥ 91.6 µM
same,IC50,HLA-A*24:02,6.71 µM
KGYVVSRRG,IC50,HLA-A*03:01 [2]; [26],≥ 102 µM
KPPKFRAFR,IC50,HLA-B*07:02 [18]; source organism: Vaccinia virus,≥ 169 µM
KSFGRISVL,Kd,HLA-B*58:01; [30],0.0176 µM
same,Kd,HLA-B*57:01 [14]; [27],0.316 µM
same,Kd,HLA-B*15:17 [20]; [30],0.0008 µM
same,Kd,HLA-C*12:03; [27],≤ 0.001 µM
KVSGTGPCA,IC50,HLA-B*07:02 [18]; [28],≥ 96.8 µM
same,IC50,HLA-A*02:01 [19],≥ 118 µM
LFPQLSAIA,IC50,HLA-B*07:02 [18]; [28],≥ 142 µM
same,IC50,HLA-A*02:01 [19],32.7 µM
same,IC50,HLA-A*24:02,13.9 µM
MVIFFMSPK,Kd,HLA-B*45:06,≥ 5 µM
same,Kd,HLA-B*83:01,≥ 5 µM
same,Kd,HLA-B*15:42,≥ 5 µM
NTFKFGVIY,Kd,HLA-A*01:01; source organism: Danio rerio,0.52 µM
same,Kd,HLA-C*12:03; [31],≤ 0.001 µM
same,Kd,HLA-B*39:01 [21],≥ 20 µM
same,Kd,HLA-B*27:03; [31],≥ 20 µM
same,Kd,HLA-B*46:01 [7]; [31],≥ 20 µM
same,Kd,HLA-B*51:01; [31],≥ 20 µM
QSVGHMMVI,IC50,HLA-B*07:02 [18]; [28],34.5 µM
same,IC50,HLA-A*02:01 [19],4.89 µM
same,IC50,HLA-A*24:02,3.77 µM
same,IC50,HLA-B*15:01 [22],≥ 143 µM
RAYWIHLMM,Kd,HLA-B*58:01; [32],0.0957 µM
same,Kd,HLA-B*57:01 [14]; source organism: Mycobacterium tuberculosis str. Haarlem,0.165 µM
same,Kd,HLA-B*15:17 [20]; [32],0.0022 µM
same,Kd,HLA-C*12:03; source organism: Mycobacterium tuberculosis C,0.002 µM
TEFFMSRKL,Kd,HLA-A*02:03 [23],≥ 20 µM
same,Kd,HLA-A*02:12,≥ 20 µM
same,Kd,HLA-B*40:01,0.0014 µM
same,Kd,HLA-A*02:16,≥ 20 µM
same,Kd,HLA-A*24:03,≥ 20 µM
same,Kd,HLA-A*02:11 [24],≥ 20 µM
same,Kd,HLA-A*29:02,≥ 20 µM
same,Kd,HLA-A*02:19,≥ 20 µM
same,Kd,HLA-A*03:01 [16]; source organism: Convict Creek 107 virus,≥ 20 µM
same,Kd,HLA-A*26:01; [33],≥ 20 µM
same,Kd,HLA-B*27:03; [33],≥ 20 µM
same,Kd,HLA-A*02:01 [5]; [33],≥ 20 µM
same,Kd,HLA-B*57:01 [6]; [33],≥ 20 µM
same,Kd,HLA-B*15:17 [25],≥ 20 µM
same,Kd,HLA-B*46:01 [7]; [33],≥ 20 µM
same,Kd,HLA-B*51:01; [33],≥ 20 µM
same,Kd,HLA-B*15:01 [9]; [33],≥ 20 µM
TKITFALKK,IC50,HLA-A*11:01 [1]; [34],11.1 µM
same,IC50,HLA-A*03:01 [2]; [34],39.6 µM

# Source: the Immune Epitope Database (IEDB)
